According to patent publication US20050187156A1 (Stanford University, published 2005):

Target: T1, GST-εRACK (human εRACK expressed as a GST fusion protein) (human, UniProt P35606 1-906)
T1 construct: 10 ng was immobilized on Glutathione-Sepharose 4B beads; also called immobilized GST-εRACK; not shown: glutathione S-transferase (GST) tag of baculovirus vector PacG3X (BD Biosciences)
T1 sequence (looked up): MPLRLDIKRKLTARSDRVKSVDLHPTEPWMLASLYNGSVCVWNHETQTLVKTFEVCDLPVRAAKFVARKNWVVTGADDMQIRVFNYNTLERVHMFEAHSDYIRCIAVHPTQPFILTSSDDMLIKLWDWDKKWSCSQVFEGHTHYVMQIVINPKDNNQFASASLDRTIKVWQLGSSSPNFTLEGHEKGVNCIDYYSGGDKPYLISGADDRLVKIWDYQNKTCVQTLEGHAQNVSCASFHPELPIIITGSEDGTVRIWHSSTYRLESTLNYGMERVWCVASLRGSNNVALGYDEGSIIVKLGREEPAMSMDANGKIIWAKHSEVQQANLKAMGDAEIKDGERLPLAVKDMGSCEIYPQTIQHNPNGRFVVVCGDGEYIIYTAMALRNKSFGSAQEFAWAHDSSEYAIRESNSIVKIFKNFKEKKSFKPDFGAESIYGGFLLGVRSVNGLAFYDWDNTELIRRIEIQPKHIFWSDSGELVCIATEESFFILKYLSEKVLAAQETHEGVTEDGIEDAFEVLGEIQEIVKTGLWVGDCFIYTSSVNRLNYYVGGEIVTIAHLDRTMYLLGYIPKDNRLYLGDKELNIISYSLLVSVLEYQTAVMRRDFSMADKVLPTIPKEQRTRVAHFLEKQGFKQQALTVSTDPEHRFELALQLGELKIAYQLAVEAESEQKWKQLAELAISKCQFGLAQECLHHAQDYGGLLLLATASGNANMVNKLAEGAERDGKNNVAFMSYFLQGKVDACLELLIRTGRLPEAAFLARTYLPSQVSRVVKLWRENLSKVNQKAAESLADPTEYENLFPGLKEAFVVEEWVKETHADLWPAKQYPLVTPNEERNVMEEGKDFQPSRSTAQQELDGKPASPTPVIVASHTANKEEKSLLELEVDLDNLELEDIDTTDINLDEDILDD
Assay: pull-down of insect cell-expressed εPKC on GST-εRACK immobilized on glutathione-Sepharose beads, no phospholipid activators, Western blot with anti-εPKC V5
Description: RACKs bind active PKC [Mochly-Rosen, D. & Gordon, A. S., FASEB J. 12:35-42 (1998); Mochly-Rosen, D. et al., Molec. Biol. Cell. (formerly Cell Regulation) 1:693-706 (1990).
Insect cells expressing either εPKC or GST-εRACK were lysed as described in Example 4. GST-εRACK, 10 ng was immobilized on Glutathion-Sepharose 4B beads (Amersham-Pharmacia), and washed thoroughly with wash buffer (20 mM Tris-HCl pH 7.5, 2 mM EDTA, 100 mM NaCl, 12 mM pME, and 0.1% TritonX-100). Immobilized GST-εRACK was then incubated with the soluble fraction of insect cell lysates containing 100 ng Wt, D(86)A, or D(86)N εPKC protein, in the presence or absence of phospholipid activators (PL) (phosphatidylserine 12 μg/reaction and, Sn-1,2 dioleoylglycerol 400 ng/reaction) for 1 hour at 4° C. Upon thorough washing with wash buffer, bound proteins were eluted in SDS-PAGE sample buffer and proteins separated on 8% SDS-PAGE gels. The amount of εPKC interacting with εRACK was determined by Western blot probing for εPKC with anti εPKC-V5 antibodies. Blots were then re-probed with ant-GST (Santa Cruz) to verify that the same amount of GST-εRACK was present in each binding assay. All other methods for this Example were performed as described, for example, in Example 4.

B1: D(86)A εPKC mutant (enzyme, human, UniProt Q02156 1-737, looked up)
chain: MVVFNGLLKIKICEAVSLKPTAWSLRHAVGPRPATFLLDPYIALNVDDSRIGQTATKQKTNSPAWHDEFVTDVCNGRKIELAVFHAAPIGYDDFVANCTIQFEELLQNGSRHFEDWIDLEPEGRVYVIIDLSGSSGEAPKDNEERVFRERMRPRKRQGAVRRRVHQVNGHKFMATYLRQPTYCSHCRDFIWGVIGKQGYQCQVCTCVVHKRCHELIITKCAGLKKQETPDQVGSQRFSVNMPHKFGIHNYKVPTFCDHCGSLLWGLLRQGLQCKVCKMNVHRRCETNVAPNCGVDARGIAKVLADLGVTPDKITNSGQRRKKLIAGAESPQPASGGSPSEEDRSKSAPTSPCDQEIKELENNIRKALSFDNRGEEHRAASSPDGQLMSPGENGEVRQGQAKRLGLDEFNFIKVLGKGSFGKVMLAELKGKDEVYAVKVLKKDVILQDDDVDCTMTEKRILALARKHPYLTQLYCCFQTKDRLFFVMEYVNGGDLMFQIQRSRKFDEPRSRFYAAEVTSALMFLHQHGVIYRDLKLDNILLDAEGHCKLADFGMCKEGILNGVTTTTFCGTPDYIAPEILQELEYGPSVDWWALGVLMYEMMAGQPPFEADNEDDLFESILHDDVLYPVWLSKEAVSILKAFMTKNPHKRLGCVASQNGEDAIKQHPFFKEIDWVLLEQKKIKPPFKPRIKTKRDVNNFDQDFTREEPVLTLVDEAIVKQINQEEFKGFSYFGEDLMP
notes: Used as the soluble fraction of a Hi5 insect cell lysate containing 100 ng εPKC protein; also called D(86)A ΨεRACK mutant; A mutant
  fold binding relative to D(86)N or Wt εPKC (absence of PL activators): ≥ 2 fold
